According to patent US10920254B2, “Methods and materials for producing 5 and 7-carbon monomers” (INVISTA North America S.á.r.l., priority 2015, dated 2021):

Assay: coupled assay of 5-hydroxyvalerate CoA transferase and thiolase, LC-MS detection of acyl-CoAs
Type: biochemical
Conditions: 1 mM acetyl-CoA, 1 mM 5-hydroxyvalerate, pH 6.8, 30° C.; no analytical standards, ions of expected molecular weight
Method: For each culture, expression plasmids were freshly transformed into BL21(DE3) (Agilent). Colonies from fresh agar plates were used to inoculate 20 ml LB in 250 ml flask overnight pre-culture. For all constructs except 237, ampicillin was used, for 237 kanamycin was required. After incubation overnight at 37° C. and 200 rpm, pre-cultures were used to inoculate (1:100) larger cultures, 350 ml LB, with respective antibiotic in […]. After 2.5 h of shaking with 200 rpm at 37° C., cultures reached OD600 in the range 0.5-0.7 at which point they were induced with 1 mM IPTG and the temperature of the culture was changed to 25° C. Incubation continued overnight. Cells were harvested the next day and stored at −20° C. until protein purification was performed.
To purify an overexpressed protein, a bacterial pellet from a 350 ml culture was resuspended in up to total 20 ml of Binding Buffer (20 mM Sodium phosphate pH 7.4, 500 mM Sodium chloride, 20 mM imidazole, 5% glycerol) and sonicated for 2 min with a microtip (amplitude 50%, 1 s pulse ON, 2 s OFF). Cell suspension was centrifuged with 20,000 G for 30 min at 4° C. As all the tested proteins were His-tagged, the purification with Immobilized Metal Affinity Chromatography was sufficient to ensure both necessary purity and amount for the enzymatic assays. […]

B1: BDIGENE #246: Clostridium viride 5-hydroxyvalerate CoA transferase (protein)
chain: MAQFVTAQEAVKHIPNGSRVVLAHSTGEPRTLVKAMVENYEQYKDVEVCHMLGLGPYEYTNPEMKGHLWHNSLFMGPGGRKAFNENRLDFTPGYFCDSIKFFREGYLPVDVLMMTVSPPDKHGYVTCGITCDFTMPAFECAKMVIVQVNKNMPRTFGQTAIHLDDIDFAVEADDPLYGSVPGELTDIDRKIGEHCASLINDGACLQLGIGGIPNAVLTYLTEKNDMGIHSEMLSDGILQLIKAGNINNSKKQIHVGKSAVTFLNGSQELYDYVDDNPSVEFYPVDYINDPYVIGKNDNMVSVNSALSVDLMGQIVADNLSATRQISGAGGFVDFVRGATISKGGISIVAMPSTAAGGKASRIEMMFDAGRPITLTRFESFYVVTEYGIAKMRGNSLRTRARQLIEIAHPDFRDEMKEFYEKRFGEKY
modifications: Clostridium viride
notes: Clostridium viride 5-hydroxyvalerate CoA transferase
With B1 the “intermediate product 5-hydroxyvaleryl-CoA by LC-MS” value was “detected in all samples containing both substrates and BDIGENE #246”.
